Test results from the Immune Epitope Database (IEDB).

Columns and labels:
HLA-A*01:01 = assay: IEDB peptide-MHC binding, purified MHC/competitive/fluorescence; filed as Kd, often an IC50 or EC50 that approximates it; ≥ and ≤ were set here for values at or beyond the usual limits of such assays; settings: source organism: Staphylococcus aureus subsp. aureus N315
HLA-B*45:06 = assay: as above
HLA-B*15:42 = assay: as above
HLA-C*14:02 = assay: as above
HLA-B*83:01 = assay: as above
HLA-A*68:23 = assay: as above
HLA-C*05:01 = assay: IEDB peptide-MHC binding, purified MHC/direct/fluorescence; filed as Kd, often an IC50 or EC50 that approximates it; ≥ and ≤ were set here for values at or beyond the usual limits of such assays
HLA-B*57:01 = assay: IEDB peptide-MHC binding, purified MHC/competitive/fluorescence; filed as Kd, often an IC50 or EC50 that approximates it; ≥ and ≤ were set here for values at or beyond the usual limits of such assays; settings: source organism: Homo sapiens
HLA-B*15:01 = assay: as above; settings: source organism: Homo sapiens
HLA-A*26:01 [1] = assay: as above; settings: source organism: Homo sapiens
HLA-B*27:03 = assay: as above; settings: source organism: Homo sapiens
HLA-B*51:01 = assay: as above
HLA-B*39:01 = assay: as above; settings: source organism: Homo sapiens
HLA-B*18:01 = assay: as above; settings: source organism: Homo sapiens
HLA-B*46:01 = assay: as above; settings: source organism: Homo sapiens
HLA-B*27:05 = assay: as above
HLA-C*07:02 = assay: IEDB peptide-MHC binding, purified MHC/direct/fluorescence; filed as Kd, often an IC50 or EC50 that approximates it; ≥ and ≤ were set here for values at or beyond the usual limits of such assays
HLA-B*35:01 = assay: IEDB peptide-MHC binding, purified MHC/competitive/fluorescence; filed as Kd, often an IC50 or EC50 that approximates it; ≥ and ≤ were set here for values at or beyond the usual limits of such assays; settings: source organism: Influenza A virus (A/Kayano/57(H2N2))
HLA-B*07:02 = assay: as above; settings: source organism: Influenza A virus (A/Kayano/57(H2N2))
HLA-A*26:02 = assay: IEDB peptide-MHC binding, purified MHC/direct/fluorescence; filed as Kd, often an IC50 or EC50 that approximates it; ≥ and ≤ were set here for values at or beyond the usual limits of such assays
HLA-B*15:02 = assay: IEDB peptide-MHC binding, purified MHC/competitive/fluorescence; filed as Kd, often an IC50 or EC50 that approximates it; ≥ and ≤ were set here for values at or beyond the usual limits of such assays
HLA-C*03:03 = assay: IEDB peptide-MHC binding, purified MHC/direct/fluorescence; filed as Kd, often an IC50 or EC50 that approximates it; ≥ and ≤ were set here for values at or beyond the usual limits of such assays
HLA-A*02:01 [2] = assay: IEDB peptide-MHC binding, purified MHC/competitive/fluorescence; filed as Kd, often an IC50 or EC50 that approximates it; ≥ and ≤ were set here for values at or beyond the usual limits of such assays; settings: source organism: Vaccinia virus WR
HLA-B*48:01 = assay: as above
HLA-A*02:19 = assay: IEDB peptide-MHC binding, purified MHC/direct/fluorescence; filed as Kd, often an IC50 or EC50 that approximates it; ≥ and ≤ were set here for values at or beyond the usual limits of such assays; settings: source organism: Hantaan virus Q32
HLA-A*02:12 = assay: as above; settings: source organism: Hantaan virus Q32
HLA-A*02:01 [3] = assay: as above; settings: source organism: Orthohantavirus hantanense
HLA-A*02:11 = assay: as above; settings: source organism: Hantaan virus Q32
HLA-A*26:01 [4] = assay: as above; settings: source organism: Vibrio vulnificus CMCP6
HLA-A*69:01 = assay: as above; settings: source organism: Mycobacterium tuberculosis
[5] = source organism: Staphylococcus aureus subsp. aureus N315
[6] = source organism: Influenza A virus (A/Kayano/57(H2N2))

## YTIGIGAFY
HLA-A*01:01
  Kd: 1.5 nM
HLA-B*45:06; [5]
  Kd: ≥ 5000 nM
HLA-B*15:42; [5]
  Kd: ≥ 5000 nM
HLA-C*14:02; [5]
  Kd: 9.4 nM
HLA-B*83:01; [5]
  Kd: ≥ 5000 nM
HLA-A*68:23; [5]
  Kd: ≤ 0.1 nM

## LTDSSTLLV
HLA-C*05:01; source organism: Homo sapiens
  Kd: 8 nM
HLA-B*57:01
  Kd: ≥ 20000 nM
HLA-B*15:01
  Kd: ≥ 20000 nM
HLA-A*26:01 [1]
  Kd: ≥ 20000 nM
HLA-B*27:03
  Kd: ≥ 20000 nM
HLA-B*51:01; source organism: Homo sapiens
  Kd: ≥ 20000 nM
HLA-B*39:01
  Kd: ≥ 20000 nM
HLA-B*18:01
  Kd: ≥ 20000 nM
HLA-B*46:01
  Kd: ≥ 20000 nM

## KRMGVQVQR
HLA-B*27:05; source organism: Influenza A virus (A/environment/Hong Kong/437-10/99 (H5N1))
  Kd: 99.8 nM

## LPFHNVHPL
HLA-C*05:01; [6]
  Kd: ≥ 20000 nM
HLA-C*07:02; [6]
  Kd: 2490 nM
HLA-B*35:01
  Kd: ≤ 0.1 nM
HLA-B*07:02
  Kd: 5.6 nM
HLA-B*51:01; [6]
  Kd: 202 nM

## LVALTLTSY
HLA-A*26:02; source organism: Yellow fever virus
  Kd: 180 nM

## LRAAIELPL
HLA-B*27:05; source organism: Mycobacterium tuberculosis H37Ra
  Kd: 160 nM

## EQRAGYQAF
HLA-B*15:02; source organism: Vibrio vulnificus YJ016
  Kd: 117 nM

## FLHESDPMV
HLA-C*03:03; source organism: Vaccinia virus WR
  Kd: ≥ 20000 nM
HLA-A*02:01 [2]
  Kd: 1.7 nM

## HYNAFQWAI
HLA-C*07:02; source organism: Acanthisitta chloris
  Kd: 29 nM

## SQMPTSLNF
HLA-B*15:02; source organism: Escherichia coli str. K-12 substr. MG1655
  Kd: 23.8 nM

## SQDDNYFTL
HLA-C*03:03; source organism: Giardia lamblia P15
  Kd: 266 nM

## VQHAPQVSL
HLA-B*48:01; source organism: Giardia lamblia ATCC 50803
  Kd: 137 nM

## RLPKDFVDL
HLA-B*45:06; source organism: Homo sapiens
  Kd: ≥ 5000 nM
HLA-B*15:42; source organism: Homo sapiens
  Kd: ≥ 5000 nM
HLA-C*14:02; source organism: Homo sapiens
  Kd: 112 nM
HLA-B*83:01; source organism: Homo sapiens
  Kd: ≥ 5000 nM
HLA-A*68:23; source organism: Homo sapiens
  Kd: 67.7 nM

## FMFNDLLKL
HLA-C*03:03; source organism: Orthohantavirus
  Kd: 1250 nM
HLA-A*02:19
  Kd: 15 nM
HLA-A*02:12
  Kd: 3 nM
HLA-A*02:01 [3]
  Kd: ≤ 1 nM
HLA-A*02:11
  Kd: ≤ 1 nM

## YGLERLAAM
HLA-C*07:02; source organism: human gammaherpesvirus 4
  Kd: 18 nM

## WLVNTYQNY
HLA-B*15:02; source organism: Cryptosporidium parvum
  Kd: 80.2 nM

## HVIASMRHF
HLA-A*26:02; source organism: Vibrio vulnificus CMCP6
  Kd: ≤ 1 nM
HLA-A*26:01 [4]
  Kd: 2 nM

## ALMDYGFRV
HLA-C*03:03; source organism: Mycobacterium tuberculosis variant bovis BCG str. Pasteur 1173P2
  Kd: ≥ 20000 nM
HLA-A*69:01
  Kd: 42 nM

## MQALGHPIL
HLA-B*48:01; source organism: Photobacterium angustum S14
  Kd: 175 nM
